Reference: IntAct's records for PubMed 18854162

B1: CCCH-type zinc finger protein oma-1 (Caenorhabditis elegans), G5EC86 (parent)
chain: MNVNGENNEKIDEHHLESSLAGVPTLPVSPLDHAKDLSQTNPNAQIGDLVTQTANLIAIKKQLLEDIAFNQHIQSMQVRAIQSFPQNNQVAPPFQQFDPRRRGLARMQKPESYKTVICQAWLESKTCSFADNCRFAHGEEELRPTFVEPLQNNKYKTKLCDKYTTTGLCPYGKRCLFIHPDHGPNAYIRADKLLEVSQRHALADIRDQMEQHIMTNGRIAAPPLSAIQHPLEMFARPSTPDEPAAKLPLGPTPVSTRGPRYELPTKELHDAEGAMTYPPSRWPLDPSMFALDAWNMAHRPASPLDSMVLGSAPNAGSFGMLGKQNTPGGVSGYSSAGSTPSQDLSSSSLNAASAAAAAAYFANSAVAQSLLMKSVATDPMMSCNGPFSPMPGFDQLAENMTKHLNLW
partner: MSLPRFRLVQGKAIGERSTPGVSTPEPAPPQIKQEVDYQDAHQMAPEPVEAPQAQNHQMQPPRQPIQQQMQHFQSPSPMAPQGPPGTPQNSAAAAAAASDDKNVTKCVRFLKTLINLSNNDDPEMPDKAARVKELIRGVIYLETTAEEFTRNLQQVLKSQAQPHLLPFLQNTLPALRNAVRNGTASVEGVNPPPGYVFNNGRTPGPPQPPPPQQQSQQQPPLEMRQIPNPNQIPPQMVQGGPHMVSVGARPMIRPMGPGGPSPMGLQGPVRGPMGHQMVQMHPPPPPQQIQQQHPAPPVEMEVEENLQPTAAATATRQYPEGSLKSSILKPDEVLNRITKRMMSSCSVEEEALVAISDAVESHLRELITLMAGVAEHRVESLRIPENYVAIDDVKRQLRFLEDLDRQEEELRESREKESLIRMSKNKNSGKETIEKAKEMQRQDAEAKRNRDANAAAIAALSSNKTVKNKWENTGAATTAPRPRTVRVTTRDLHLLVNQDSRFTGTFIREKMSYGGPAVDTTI

Variants of: B1
Details: with taf4_caeel taf-4, O61707

effect of a mutation on the interaction	Variant
decreasing interaction	MNVNGENNEKIDEHHLESSLAGVPTLPVSPLDHAKDLSQTNPNAQIGDLVTQTANLIAIKKQLLEDIAFNQHIQSMQVRAIQSFPQNNQVAPPFQQFDPRRRGLARMQKPESYKTVICQAWLESKTCSFADNCRFAHGEEELRPTFVEPLQNNKYKTKLCDKYTTTGLCPYGKRCLFIHPDHGPNAYIRADKLLEVSQRHALADIRDQMEQHIMTNGRIAAPPLSAIQHPLEMFARPSAPDEPAAKLPLGPTPVSTRGPRYELPTKELHDAEGAMTYPPSRWPLDPSMFALDAWNMAHRPASPLDSMVLGSAPNAGSFGMLGKQNTPGGVSGYSSAGSTPSQDLSSSSLNAASAAAAAAYFANSAVAQSLLMKSVATDPMMSCNGPFSPMPGFDQLAENMTKHLNLW [T239A]
